Experimental data as given in patent US20250026791A1, “CYCLIC PEPTIDE CYCLIZED IN AROMATIC NUCLEOPHILIC SUBSTITUTION REACTION, AND PEPTIDE LIBRARY, PRODUCTION METHOD, AND SCREENING METHOD FOR SAME” (UNIVERSITY OF YAMANASHI, priority 2021, published 2025).
*1 amine or outer side, *2 acyl side, *3 side chain or, on linkers, in order; H or OH if unused. Where no end group is shown, it is not given here. The star is where a group is joined. Lys(Biotin) = O=C(CCCC[C@@H]1SC[C@@H]2NC(=O)N[C@@H]21)NCCCC[C@H](N[*:1])C(=O)[*:2]; F5Ph = Fc1c(F)c(F)c(*)c(F)c1F; FNO2Ph = not defined here; Ahx = NCCCCCC(=O)O

Legend:
Format in all cases: binding
PCSK9 [1] = biological target: T1, PCSK9 (Homo sapiens, UniProt Q8NBP7); assay: HRP-labeled peptide pulled down with PCSK9-immobilized beads, chemiluminescence detection; settings: without presentation by cDNA-mRNA dimer, FIGS. 16, 17, 25
Procedure: Peptide 1-1 and Peptide 2-1 were labeled via horseradish peroxidase (HRP)-labeled streptavidin. Each peptide of HRP-labeled Peptide 1-1 and Peptide 2-1 was pulled down with PCSK9-immobilized beads. HRP substrate was added to PCSK9-immobilized beads and chemiluminescence was detected using LuminoGraph III (ATTO).
The PCSK9 binding activity of HRP-labeled Peptide 1-1 (monomer) and the dimer of Peptide 1-1 (Peptide A) were analyzed by PCSK9 pull-down and chemiluminescence detection.
Peptide C was labeled via HRP-labeled streptavidin. Based on the same method as in Experimental Example 7, the PCSK9 binding activity of HRP-labeled Peptide C was analyzed by PCSK9 pulldown and chemiluminescence detection.

His-tagged PCSK9 = His-tagged PCSK9 (Homo sapiens, UniProt Q8NBP7); assay: His-tagged PCSK9 (HRP-conjugated anti-His-tag antibody) pulled down with peptide-immobilized streptavidin beads, chemiluminescence detection; settings: peptide on streptavidin beads pulls down His-tagged PCSK9; FIGS. 18 and 19
Procedure: Each of Peptide 1-1 and peptide 2-1 was conjugated to streptavidin beads. His-tagged PCSK9 was labeled via HRP-conjugated anti-His-tagged antibody. The complex of PCSK9 and HRP was pulled down with Peptide 1-1 or Peptide 2-1 immobilized beads. HRP substrates were added to the peptide-immobilized beads and chemiluminescence was detected using LuminoGraph III (ATTO).

PCSK9 [2] = biological target: T1, PCSK9; assay: Collection rate of cDNA/mRNA presenting cyclized peptide against PCSK9-immobilized beads; settings: for collection rate against PCSK9, Peptide 2 (WT) versus Peptide 3 (C17S): FIG. 13, C17 replaced with serine
Procedure: Site-specific biotinylated human PCSK9 was immobilized on streptavidin-modified magnetic beads. Fc fusion protein of human PCSK9 was immobilized on protein A-modified magnetic beads. Immobilization of PCSK9 was confirmed by sodium dodecyl sulfate polyacrylamide gel electrophoresis and staining with Coomassie brilliant blue.
Each of the mRNA-presenting FNO2Ph and F5Ph cyclized peptide libraries was incubated with PCSK9-immobilized streptavidin-modified beads as positive selection. After removal of the supernatant, the beads were washed with HBS-T. cDNA encoding the peptide binding to the PCSK9-immobilized beads was PCR amplified with Taq DNA polymerase. The amplified PCR product was used for the next round of SELEX.
After the positive selection, cDNA encoding peptides that bind to PCSK9 immobilized beads was amplified by PCR and quantified by qPCR using SYBR green.
Each collection rate of the cDNA/mRNA presenting FNO2Ph cyclized peptide with the amino acid sequence of SEQ ID: 4 (hereafter referred to as Peptide 1) and the cDNA/mRNA presenting F5Ph cyclized peptide with the amino acid sequence of SEQ ID: 14 (hereafter referred to as Peptide 2) against PCSK9 was determined. […] beads were used as negative controls.
Peptide 3 (SEQ ID: 27) was prepared by replacing C17 in Peptide 2 (F5Ph is the first amino acid) with serine. Each collection rate of Peptide 2 (WT) and Peptide 3 (C17S) against PCSK9 was measured (FIG. 13).

human IL-5 = assay: Collection rate of cDNA/mRNA presenting cyclized peptide against IL-5; settings: compared with IL-5 non-immobilized beads (FIGS. 29 and 30)
Procedure: We checked whether the screening in Experimental Example 2 is applicable to compounds other than human PCSK9. Screening was performed for peptides that bind to human IL-5 as compounds other than human PCSK9.
Each collection rate of cDNA/mRNA presenting FNO2Ph cyclized peptide with the amino acid sequence of SEQ ID: 66 (hereafter referred to as Peptide 4) and cDNA/mRNA presenting F5Ph cyclized peptide with the amino acid sequence of SEQ ID: 69 (hereafter referred to as Peptide 5) against IL-5 was determined. IL-5 non-immobilized beads were used as a negative control. […] From the above, it was possible to screen for human IL-5 which is a compound other than human PCSK9.

T1 sequence (Q8NBP7 153-692): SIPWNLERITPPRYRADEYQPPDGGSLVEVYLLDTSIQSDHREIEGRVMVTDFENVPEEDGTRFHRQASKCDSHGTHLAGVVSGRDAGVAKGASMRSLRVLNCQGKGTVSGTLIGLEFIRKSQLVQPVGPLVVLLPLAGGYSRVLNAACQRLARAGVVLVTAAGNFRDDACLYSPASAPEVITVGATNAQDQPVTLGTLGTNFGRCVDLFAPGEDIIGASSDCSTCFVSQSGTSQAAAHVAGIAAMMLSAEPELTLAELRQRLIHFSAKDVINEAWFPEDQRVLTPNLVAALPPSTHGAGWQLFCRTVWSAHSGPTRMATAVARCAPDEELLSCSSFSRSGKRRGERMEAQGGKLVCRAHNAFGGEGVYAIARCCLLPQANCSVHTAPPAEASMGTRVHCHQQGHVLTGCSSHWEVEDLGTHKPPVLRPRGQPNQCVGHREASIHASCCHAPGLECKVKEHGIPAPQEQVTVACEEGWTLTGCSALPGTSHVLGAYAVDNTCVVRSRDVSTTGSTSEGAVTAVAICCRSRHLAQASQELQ
human IL-5, sequence (P05113 20-134): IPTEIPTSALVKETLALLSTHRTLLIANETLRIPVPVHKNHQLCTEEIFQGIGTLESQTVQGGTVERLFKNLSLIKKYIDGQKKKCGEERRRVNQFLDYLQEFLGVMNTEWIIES
His-tagged PCSK9, sequence (Q8NBP7 153-692): as the sequence (Q8NBP7 153-692) above

Row | PCSK9 binding activity (PCSK9 [1]) | Substance | collection rate against PCSK9, Peptide 2 (WT) versus Peptide 3 (C17S) (PCSK9 [2]) | collection rate against IL-5 (human IL-5) | other results
1 | have binding activity to PCSK9 | Peptide 2-1: chemically synthesized FNO2Ph cyclized peptide (as printed), SEQ ID: 14, C-terminal spacer of three Ahx and biotinylated lysine (RGHCWLYVYFPVRSLC-{Ahx-Ahx-Ahx-K(biotin)-NH2}; thioether (positions not given here); not fully specified (N-terminus, bridges); also: FNO2Ph cyclization, places not given here) | – | – | PCSK9 binding activity (His-tagged PCSK9): have binding activity to PCSK9
2 | – | Peptide 2: F5Ph cyclized peptide with amino acid sequence of SEQ ID: 14 (RGHCWLYVYFPVRSLC), cDNA/mRNA presented (F5Ph-RGHCWLYVYFPVRSLC; thioether (positions not given here); not fully specified (bridges)) | C17 in Peptide 2 was found to be critical for Peptide 2 binding to PCSK9 | – | collection rate against PCSK9 (PCSK9 [2]; cDNA/mRNA presenting peptide, compared with negative control beads (FIGS. 10 and 11)): higher than that of the negative control
3 | – | Peptide 3: SEQ ID: 27; C17 in Peptide 2 (F5Ph is the first amino acid) replaced with serine (F5Ph-RGHCWLYVYFPVRSLS; thioether (positions not given here); not fully specified (bridges)) | C17 in Peptide 2 was found to be critical for Peptide 2 binding to PCSK9 | – | –
4 | – | Peptide 4: FNO2Ph cyclized peptide with amino acid sequence of SEQ ID: 66 (LLLMWCAVLVVLRWRRR), cDNA/mRNA presented (bridge (positions not given here) via FNO2Ph; reading uncertain; also: FNO2Ph cyclization, places not given here) | – | higher than those of the negative control | –
5 | – | Peptide 5: F5Ph cyclized peptide with amino acid sequence of SEQ ID: 69 (HSPFTFQHC), cDNA/mRNA presented (bridge (positions not given here) via F5Ph; also: F5Ph cyclization, places not given here) | – | higher than those of the negative control | –
6 | have binding activity for PCSK9 | Peptide C: FNO2Ph cyclized peptide, SEQ ID: 35: two methionines of SEQ ID: 28 replaced with isoleucine; three Ahx spacer, biotinylated lysine (RWRFYSGIRNREIDC-{Ahx-Ahx-Ahx-Lys(Biotin)-NH2}; not fully specified (N-terminus, bridges); also: FNO2Ph cyclization, places not given here) | – | – | –
